B1: unnamed (parent)
chain 1: NNELSPVALRQMSCAAGTTQTACTDDNALAYYNTTKGGRFVLALLSDLQDLKWARFPKSDGTGTIYTELEPPCRFVTDTPKGPKVKYLYFIKGLNNLNRGMVLGSLAATVRLQ
chain 2: AEGIDIGEMPSYDLVL

In this experiment the parent is B1. The experiment can be described thus: fluorescence polarisation saturation. To be noted: with partner chain of the complex shown. On the technique in general: Polarisation of emitted light reports the rotation of a fluorescent probe.
For chain 1 NNELSPVALRQMSCAAGTTQTACTDDNALAYYNTTKGGRFVLALLSDLQDLKWARFPKSDGTGTIYTELEPPCRFVTDTPKGPKVKYLYFIKGLNNLNRNMVLDSLAATVRLQ [chain 1 G100N G104D], the Kd – broadly, the free concentration of one partner at which half of the binding sites on the other are occupied at equilibrium, for simple one-to-one binding – came to 20 µM.

The values above are taken from paper PMC10499821.
